Substrate in this series: CC(C)CCC[C@@H](C)[C@H]1CC[C@H]2[C@@H]3CC=C4C[C@@H](O)CC[C@]4(C)[C@H]3CC[C@]12C
Kind of series: purified protein. It is filed as biochemical, Chromobacterium sp. DS-1. Particulars: 0.1 M potassium phosphate pH 7, 25°C, cholesterol 0-1 mM.

The Km is the substrate concentration at which the rate is half of its maximum.

B1: cholesterol oxidase from Chromobacterium sp. DS1 (ChO) (Chromobacterium sp. DS-1) (protein)
chain: GRLTCSQPNNFPAEIPLYKQSFKNWAGDIKVDDVWTCAPRSADEVVKVANWAKDNGYKVRARGMMHNWSPLTLAAGVSCPAVVLLDTTRYLTAMSIDASGPVAKVTAQAGITMEALLTGLEKAGLGVTAAPAPGDLTLGGVLAINGHGTAIPAKGERRLAGASYGSISNLVLSLTAVVYDKASGAYALRKFARNDPQIAPLLAHVGRSLIVEATLQAAPNQRLRCQSWFNIPYGEMFAAAGSGGRTFASYLDSAGRVEAIWFPFTSNPWLKVWTVTPNKPLFSRQTDKPFNYPFSDNLPDEVTDLANKILSLGDGKLTPAFGKAQFAAASAGLVATASWDLWGWSKNLLLYVKPTTLRVTANGYAVLTRRENVQRVLNEFVTFYQARVQAYQQQGRYPMNGPVEIRVTGLDDPSEAALSGGVAPALSAIRPRPDHPEWNVAVWLDILTLPGTPYANQFYREIEQWIEANFNGSYAAVRPEWSKGWGYTDQAAWADSAMLQTTIPNAFRAGQPAAANWDAAKAALAAYDPYRLFSSPLLDSLGL
notes: synthetic gene in pET24b(+) NdeI-BamHI; 6xHis tag (N-terminal), no tag removal told; E. coli Rosetta-gami2(DE3); native enzyme 58 kDa
Regarding B1, the Km stood at 31 µM.

The values are drawn from article PMC6373949, “Expression optimization, purification, and functional characterization of cholesterol oxidase from Chromobacterium sp. DS1” (PLoS ONE, 2019).
